Experimental findings from publication PMC11869522, “Competitive displacement of lipoprotein lipase from heparan sulfate is orchestrated by a disordered acidic cluster in GPIHBP1” (Journal of Lipid Research, 2025) are described below.

Test [1] deals with hLPL bound to immobilized heparan sulfate. Kind of test: GPIHBP1-mediated extraction of LPL from HSPGs (SPR, immobilized heparin dp4 fragments). The format is binding, human. The settings on record: 12.5–200 nM GPIHBP1 proteins, 0.1–1.6 μM sulfated GPIHBP1^1–33, or GPIHBP1^34–131 with 1 μM sulfated GPIHBP1^1–33. An excerpt: To mimic electrostatic conditions found in the sub-endothelial spaces where surface-bound heparan-sulfate proteoglycans (HSPGs) are abundant, we designed a surrogate sensor surface using a streptavidin-coated CM5 sensor chip to capture high densities of biotinylated synthetic heparin dp4 fragments ([28], [29]). The reference surface was loaded with a neutral and non-sulfated fragment (M09 S00 from Iduron), while the active surface was loaded with a negatively charged fragment (M09 S08a from Iduron) containing N- and O-6-linked sulfations on each of the […] glucosamine residues in the DP4 fragment. Only the highly sulfated oligosaccharide bound LPL, and those interactions were transient with high off-rates. Despite the very transient nature of this binding, we created a stable reservoir of hLPL on the sensor surface by combining the fast kinetics of polyelectrolyte interactions with severe mass transport limitation—the latter phenomenon impedes LPL escape from the surface due to the fast rebinding that is favored by the high densities of immobilized heparin fragments (300 fmol/mm^2). For each experiment, 12.5 nM hLPL was loaded for 100 s at a flow rate of 20 μl/min in 10 mM Hepes (pH 7.4), 150 mM NaCl, 4 mM CaCl2, 10% (vol/vol) glycerol, 0.05% (vol/vol) surfactant P20, 1 mg/ml defatted BSA, […], and 0.05% (wt/vol) NaN3.
To compare the ability of GPIHBP1^1–131 and its charge variants to bind and extract hLPL from this dynamic reservoir, we injected twofold serial dilutions of 1.25–200 nM GPIHBP1^1–131; 1.25–200 nM GPIHBP1^Cluster1-neutral; GPIHBP1^Cluster2-neutral; 1.25–200 nM GPIHBP1^34–131; 0.1–1.6 μM GPIHBP1^1–33 with Tyr^18–SO4; or 1.25–200 nM GPIHBP1^34–131 in the presence of 1 μM sulfated GPIHBP1^1–33 for 250 s at 20 μl/min in 10 mM Hepes (pH 7.4), 150 mM NaCl, 4 mM CaCl2, 10% (vol/vol) glycerol, 0.05% (vol/vol) surfactant P20, 0.2 mg/ml fatty acid-free BSA, and 0.05% (wt/vol) NaN3. At the end of each cycle, two consecutive injections of 10 μl 3 M guanidinium chloride regenerated the chip.
GPIHBP1’s ability to displace LPL from its HSPG-bound state in the sub-endothelial spaces is essential for the trans-endothelial trafficking of LPL to the luminal surface of capillary cells ([29]). The importance of the acidic tail in this process is supported by solid evidence from surrogate in vitro models and in vivo studies in gene-edited mice ([28], [29]). It was therefore important to determine the relative impact of the two charge-clusters in GPIHBP1 on their ability to disrupt LPL•HSPG interactions. To gain this insight, we measured the ability of different GPIHBP1 charge variants to displace hLPL from a SPR sensor chip surface coupled with a high density of immobilized small heparin-like fragments ([28]). […]

Another test concerns bLPL. The experiment in a line: PCSK3 cleavage of LPL (SDS-PAGE densitometry). It is filed as biochemical, bovine. The settings on record: 20 μM bLPL, 4 units PCSK3, 2 μM ANGPTL4, no GPIHBP1; 25°C, pH 7.0; 110 min without ANGPTL4. How it is done: To determine if charge-variants of GPIHBP1 confer distinct resistance to ANGPTL4-facilitated cleavage of LPL after Arg^324 by PCSK3 ([33]), we incubated purified bLPL (20 μM) with PCSK3 (4 units) for 0–240 min, either alone or in the presence of ANGPTL4 (2 μM) and/or GPIHBP1 (25 μM) at 25°C in 10 mM 2-(N-morpholino) ethane sulfonic acid (MES), 150 mM NaCl, 1 mM CaCl2, pH 7.0. We tested four different GPIHBP1 variants: GPIHBP1^1–131, GPIHBP1^Cluster1-neutral, GPIHBP1^Cluster2-neutral, and GPIHBP1^34–131 (LU domain only). PCSK3 cleavage was stopped by boiling in SDS-PAGE sample buffer (reduced and alkylated) and the degree of cleavage was assessed by SDS-PAGE using 12% Bis-Tris SDS-PAGE gels followed by densitometric scanning of the corresponding Coomassie blue–stained SDS-polyacrylamide gels.
Secretion of LPL by adipocytes is modulated in an autocrine manner by ANGPTL4. […] In the presence of endogenous ANGPTL4, a significant fraction of LPL was cleaved by PCSK3 in the trans-Golgi compartment. […] The presence of GPIHBP1 dramatically delayed PCSK3 cleavage of LPL ([33]). To assess the role of the acidic tail in GPIHBP1 on this delay, we incubated 20 μM bLPL with 4 units of PCSK3 either alone or in the presence of 2 μM ANGPTL4. We observed that the presence of sub-stoichiometric amounts of ANGPTL4 reduced the half-life of intact bLPL from 110 min to less than 5 min (Fig. 5A). […] Our results emphasized the essential role of GPIHBP1’s acidic tail in protecting LPL against ANGPTL4-induced cleavage by PCSK3.
Fig. 5 GPIHBP1 reduces ANGPTL4-facillitated PSCK3 cleavage of LPL. 20 μM bLPL was incubated with 4 units of PSCK3 for 0–240 min at 25°C and the extent of LPL cleavage after Arg^324 was assessed by densitometric scanning of Coomassie–blue stained polyacrylamide after SDS-PAGE of reduced and alkylated samples. A: PSCK3 cleavage of LPL is accelerated by the presence of 2 μM ANGPTL4—present at sub-stoichiometric amounts compared to bLPL (20 μM). 25 μM intact GPIHBP1, but not GPIHBP1^34–131 mitigates PSCK3 cleavage of LPL. B: Both GPIHBP1^Cluster1-neutral and GPIHBP1^Cluster2-neutral rescue LPL from cleavage by PSCK3 in the absence of ANGPTL4 and both are more efficient than GPIHBP1^34–131. C: in the presence of 2 μM ANGPTL4, 25 μM GPIHBP1^Cluster1-neutral protects LPL from PSCK3 cleavage more efficiently than the GPIHBP1^Cluster2-neutral, which indicates a more prominent role of acidic cluster 2 in protecting LPL from ANGPTL4-catalyzed unfolding and subsequent PSCK3 cleavage. Shown are the mean values (±SEM) for intact LPL relative to that present at time 0 min for 3–5 independent time-course experiments. Some curves appear in multiple panels to increase clarity.

The target of test [2] is T1, Human LPL (lipoprotein lipase) (human, UniProt P06858 28-475, R324A).
T1 sequence (looked up): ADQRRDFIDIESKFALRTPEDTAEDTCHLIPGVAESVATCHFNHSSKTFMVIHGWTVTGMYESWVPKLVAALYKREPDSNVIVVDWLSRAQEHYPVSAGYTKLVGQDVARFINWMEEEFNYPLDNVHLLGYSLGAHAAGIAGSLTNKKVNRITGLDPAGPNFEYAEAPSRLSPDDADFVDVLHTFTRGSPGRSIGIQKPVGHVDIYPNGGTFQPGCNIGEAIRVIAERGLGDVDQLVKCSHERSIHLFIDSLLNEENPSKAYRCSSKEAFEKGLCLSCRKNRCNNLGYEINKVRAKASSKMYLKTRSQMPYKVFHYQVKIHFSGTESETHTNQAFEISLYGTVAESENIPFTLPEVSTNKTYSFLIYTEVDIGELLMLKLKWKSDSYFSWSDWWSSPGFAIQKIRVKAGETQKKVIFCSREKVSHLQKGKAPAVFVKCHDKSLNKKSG
Kind of test: cell-based or functional assay.

The target of the next test is T2, Bovine LPL (bovine, UniProt P11151 29-478).
T2 construct: also called bLPL; source: purified from fresh bovine milk
T2 sequence (looked up): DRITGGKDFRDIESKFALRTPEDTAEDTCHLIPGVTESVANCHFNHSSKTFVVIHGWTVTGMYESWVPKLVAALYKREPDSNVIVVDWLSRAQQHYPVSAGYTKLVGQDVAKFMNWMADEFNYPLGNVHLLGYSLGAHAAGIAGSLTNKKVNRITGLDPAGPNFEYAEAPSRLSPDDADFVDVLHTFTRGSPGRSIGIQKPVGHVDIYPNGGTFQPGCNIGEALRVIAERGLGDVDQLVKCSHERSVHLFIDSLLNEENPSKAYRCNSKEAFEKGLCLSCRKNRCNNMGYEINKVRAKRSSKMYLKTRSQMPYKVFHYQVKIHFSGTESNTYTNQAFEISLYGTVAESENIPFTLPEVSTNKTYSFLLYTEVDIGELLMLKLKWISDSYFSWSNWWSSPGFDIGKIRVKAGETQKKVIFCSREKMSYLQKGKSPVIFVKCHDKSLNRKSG
Kind of test: native gel or EMSA; native PAGE of purified GPIHBP1 charge variants with hLPL, bLPL or mLPL (supplemental Fig. S1). The settings on record: both partners purified. A general note: In EMSA bound probe runs differently from free probe, usually more slowly.

Changes are numbered by the printed parent chain. Where no end group is shown, it is not given here. The star is where a group is joined. sulfate = O=S(=O)(O)*

As to “sulfated GPIHBP1^1–33: GPIHBP1^1–33 peptide carrying a tyrosyl-sulfation (Tyr^18) (QTQQEEEEEDEDHGPDDY(sulfate)DEEDEDEVEEEETNR; UniProt Q8IV16 21-53, looked up, fragment)”, in test [1], the “competitive displacement of HSPG-bound hLPL (in words)” value is recorded as “not perturbed”.

B1: ANGPTL4: Coiled-coil domain of ANGPTL4 (residues 1–159, N-terminal methionine, C-terminal 6× His-tag) produced in E. coli (protein, UniProt Q9BY76 26-406, looked up)
Angiopoietin-related protein 4: GPVQSKSPRFASWDEMNVLAHGLLQLGQGLREHAERTRSQLSALERRLSACGSACQGTEGSTDLPLAPESRVDPEVLHSLQTQLKAQNSRIQQLFHKVAQQQRHLEKQHLRIQHLQSQFGLLDHKHLDHEVAKPARRKRLPEMAQPVDPAHNVSRLHRLPRDCQELFQVGERQSGLFEIQPQGSPPFLVNCKMTSDGGWTVIQRRHDGSVDFNRPWEAYKAGFGDPHGEFWLGLEKVHSITGDRNSRLAVQLRDWDGNAELLQFSVHLGGEDTAYSLQLTAPVAGQLGATTVPPSGLSVPFSTWDQDHDLRRDKNCAKSLSGGWWFGTCSHSNLNGQYFRSIPQQRQKLKKGIFWKTWRGRYYPLQATTMLIQPMAAEAAS
In the case of B1, in the test on bLPL, the “half-life of intact bLPL” value is listed as “less than 5 min”.

B2: GPIHBP1^1–131/R38G (domain or fragment, human, UniProt Q8IV16 21-151, looked up)
chain: QTQQEEEEEDEDHGPDDYDEEDEDEVEEEETNRLPGGGSRVLLRCYTCKSLPRDERCNLTQNCSHGQTCTTLIAHGNTESGLLTTHSTWCTDSCQPITKTVEGTQVTMTCCQSSLCNVPPWQSSRVQDPTG
modifications: sulfated Tyr18; one bi-antennary N-linked glycosylation
As for B2, the “reduction in hLPL levels on the heparan sulfate sensor surface after GPIHBP1 injections (12.5–200 nM), SPR” value (“reduction in hLPL levels” below) in test [2] came to 68.1%.

B3: GPIHBP1^Cluster1-neutral (domain or fragment, human, UniProt Q8IV16 21-151, looked up)
chain: B2 chain with E5Q, E6Q, E7Q, E8Q, E9Q, D10N, E11Q, D12N, D16N, D17N
modifications: Tyr18 sulfation present in less than 40%; one bi-antennary N-linked glycosylation
notes: Construct from VectorBuilder Inc; source: Drosophila S2-cells, secreted, purified, D3 tag removed; not shown: uPAR domain III, N-terminal, cleaved
On to B3, for which, in test [2], the “reduction in hLPL levels” value amounted to 34.8%. For the same molecule, in the test with Bovine LPL, the binding result is reported as “binds”.

B4: GPIHBP1^Cluster2-neutral (domain or fragment, human, UniProt Q8IV16 21-151, looked up)
chain: QTQQEEEEEDEDHGPDDYNQQNQNQVQQQQTNRLPGGGSRVLLRCYTCKSLPRDERCNLTQNCSHGQTCTTLIAHGNTESGLLTTHSTWCTDSCQPITKTVEGTQVTMTCCQSSLCNVPPWQSSRVQDPTG
modifications: Tyr18 sulfation absent; one bi-antennary N-linked glycosylation
notes: as for B3
Take B4: the “reduction in hLPL levels” value in test [2] is 1.2%. Moreover, the binding result in the test with Bovine LPL is on record as “binds”.
